Measurements from publication PMC7851489.

B1: mouse CD226 protein (receptor)
chain: EETLWDTTVRLSETMTLECVYPLTHNLTQVEWTKNTGTKTVSIAVYNPNHNMHIESNYLHRVHFLNSTVGFRNMSLSFYNASEADIGIYSCLFHAFPNGPWEKKIKVVWSDSFEIAAPSDSYLSAEPGQDVTLTCQLPRTWPVQQVIWEKVQPHQVDILASCNLSQETRYTSKYLRQTRSNCSQGSMKSILIIPNAMAADSGLYRCRSEAITGKNKSFVIRLIITDGGTNKHFILP

Target: soluble extracellular domain of poliovirus receptor (sPVR)
Experiment: BLI

Row | Molecule | Kd [µM]
1 | mouse TIGIT protein (from UniProt P86176 29-148) (receptor) | 0.033
2 | B1 | 6.13
